The assay has as its target H3K27me3 peptide. Nature of the assay: ITC. A general note: ITC needs no label: the signal is the heat of the interaction.

The record followed here is publication PMC10926671.

As usually defined, the Kd is the free concentration of one partner at which half of the binding sites on the other are occupied at equilibrium, for simple one-to-one binding. Read a high Kd as a looser complex. Regarding “MBP-BP1 (maltose-binding protein-tagged bromo-adjacent homology-plant homeodomain domain containing protein 1) (natural protein)”, the Kd stood at 16.2 µM.
